Each block holds one binder with its values, some of them ahead of it.
What was measured:
Test in all cases: holdup assay
Design in all cases: key: below the threshold = too weak to quantify, mostly under pKd 3.1 to 4
AHNAK1, Q09666 = target: AHNAK1, Q09666
APBA2_1, Q99767 = target: T1, APBA2_1, Q99767
T1 sequence (Q99767 563-664, limits assumed, looked up): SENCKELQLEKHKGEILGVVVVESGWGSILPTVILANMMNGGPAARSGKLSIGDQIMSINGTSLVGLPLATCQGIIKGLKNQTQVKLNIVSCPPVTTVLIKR

APBA3_1, O96018 = target: T2, APBA3_1, O96018
T2 sequence (O96018 389-490, limits assumed, looked up): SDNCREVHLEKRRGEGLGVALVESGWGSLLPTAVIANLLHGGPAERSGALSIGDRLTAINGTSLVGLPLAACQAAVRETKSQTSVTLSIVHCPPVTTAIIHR

ARHGEF11, O15085 = target: T3, ARHGEF11, O15085
T3 sequence (O15085 42-136, limits assumed, looked up): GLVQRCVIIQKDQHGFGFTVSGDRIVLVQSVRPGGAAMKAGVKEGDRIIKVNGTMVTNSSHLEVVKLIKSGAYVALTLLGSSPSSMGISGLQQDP

DLG2_3, Q15700 = target: DLG2_3, Q15700
DLG3_1, Q92796 = target: T4, DLG3_1, Q92796
T4 sequence (Q92796 125-227, limits assumed, looked up): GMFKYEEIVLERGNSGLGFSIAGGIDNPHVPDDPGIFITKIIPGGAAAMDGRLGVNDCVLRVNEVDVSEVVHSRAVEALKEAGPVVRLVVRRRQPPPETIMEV

DLG5_1, Q8TDM6 = target: DLG5_1, Q8TDM6
Chain of DLG5_1, Q8TDM6 (Q8TDM6 617-713): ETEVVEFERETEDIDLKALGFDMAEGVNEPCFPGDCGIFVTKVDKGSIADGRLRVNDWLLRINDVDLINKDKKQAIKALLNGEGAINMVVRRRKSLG

DVL3, Q92997 = target: T5, DVL3, Q92997
T5 sequence (Q92997 244-331, limits assumed, looked up): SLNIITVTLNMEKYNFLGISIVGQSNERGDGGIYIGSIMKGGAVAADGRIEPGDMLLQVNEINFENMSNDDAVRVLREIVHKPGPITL

FRMPD2_1, Q68DX3 = target: FRMPD2_1, Q68DX3
Chain of FRMPD2_1, Q68DX3 (Q68DX3 770-861): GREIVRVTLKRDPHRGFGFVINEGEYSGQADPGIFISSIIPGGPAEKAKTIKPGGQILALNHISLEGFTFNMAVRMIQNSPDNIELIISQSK

FRMPD2_3, Q68DX3 = target: FRMPD2_3, Q68DX3
Chain of FRMPD2_3, Q68DX3 (Q68DX3 1073-1166): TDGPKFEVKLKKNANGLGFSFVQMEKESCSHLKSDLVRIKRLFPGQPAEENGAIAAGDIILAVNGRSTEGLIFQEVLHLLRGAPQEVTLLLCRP

GRIP2_6, Q9C0E4 = target: GRIP2_6, Q9C0E4
Chain of GRIP2_6, Q9C0E4 (Q9C0E4 648-740): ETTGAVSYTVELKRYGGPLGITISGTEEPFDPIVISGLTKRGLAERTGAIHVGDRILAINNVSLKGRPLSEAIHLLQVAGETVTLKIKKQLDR

HTRA2, O43464 = target: HTRA2, O43464
Chain of HTRA2, O43464 (O43464 355-458): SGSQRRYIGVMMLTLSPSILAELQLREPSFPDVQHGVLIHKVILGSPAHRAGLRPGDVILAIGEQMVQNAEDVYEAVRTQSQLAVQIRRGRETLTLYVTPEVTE

IL16_4, Q14005 = target: IL16_4, Q14005
Chain of IL16_4, Q14005 (Q14005 1229-1329): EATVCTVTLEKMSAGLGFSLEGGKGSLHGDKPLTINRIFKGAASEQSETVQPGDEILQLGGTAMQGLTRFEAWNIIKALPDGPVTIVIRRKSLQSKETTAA

LAP2, Q96RT1 = target: LAP2, Q96RT1
Chain of LAP2, Q96RT1 (Q96RT1 other isoform, or with tags, fused parts or gaps): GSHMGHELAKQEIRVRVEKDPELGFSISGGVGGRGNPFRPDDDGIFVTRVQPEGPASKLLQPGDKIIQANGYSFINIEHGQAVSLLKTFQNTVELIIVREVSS

LRRC7, Q96NW7 = target: T6, LRRC7, Q96NW7
T6 sequence (Q96NW7 1440-1537, limits assumed, looked up): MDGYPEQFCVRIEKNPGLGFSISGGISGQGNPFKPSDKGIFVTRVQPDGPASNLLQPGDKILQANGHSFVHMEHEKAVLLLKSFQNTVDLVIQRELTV

MAGI2_6, Q86UL8 = target: MAGI2_6, Q86UL8
Chain of MAGI2_6, Q86UL8 (Q86UL8 1141-1229): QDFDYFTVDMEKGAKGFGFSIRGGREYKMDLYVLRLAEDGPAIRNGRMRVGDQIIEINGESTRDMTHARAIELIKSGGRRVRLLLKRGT

MPP6, Q9NZW5 = target: T7, MPP6, Q9NZW5
T7 sequence (Q9NZW5 125-219, limits assumed, looked up): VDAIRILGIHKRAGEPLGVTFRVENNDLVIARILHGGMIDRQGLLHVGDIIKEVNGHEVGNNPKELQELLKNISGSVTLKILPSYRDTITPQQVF

MPP7, Q5T2T1 = target: T8, MPP7, Q5T2T1
T8 sequence (Q5T2T1 134-230, limits assumed, looked up): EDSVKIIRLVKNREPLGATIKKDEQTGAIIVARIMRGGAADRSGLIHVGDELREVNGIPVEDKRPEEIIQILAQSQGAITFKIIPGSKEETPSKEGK

PARD3_3, Q8TEW0 = target: PARD3_3, Q8TEW0
Chain of PARD3_3, Q8TEW0 (Q8TEW0 582-685): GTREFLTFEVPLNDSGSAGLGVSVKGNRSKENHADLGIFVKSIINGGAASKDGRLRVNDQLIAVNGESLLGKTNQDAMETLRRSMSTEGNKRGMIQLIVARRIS

PDZD2_2, O15018 = target: T9, PDZD2_2, O15018
T9 sequence (O15018 329-429, limits assumed, looked up): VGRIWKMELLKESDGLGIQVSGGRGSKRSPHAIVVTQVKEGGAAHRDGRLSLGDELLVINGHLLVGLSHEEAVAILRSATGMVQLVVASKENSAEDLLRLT

PTPN13_1, Q12923 = target: T10, PTPN13_1, Q12923
T10 sequence (Q12923 1088-1188, limits assumed, looked up): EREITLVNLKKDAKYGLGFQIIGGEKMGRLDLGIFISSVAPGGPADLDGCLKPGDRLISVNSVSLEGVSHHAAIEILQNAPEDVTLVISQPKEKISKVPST

RAPGEF6, Q8TEU7 = target: T11, RAPGEF6, Q8TEU7
T11 sequence (Q8TEU7 525-625, limits assumed, looked up): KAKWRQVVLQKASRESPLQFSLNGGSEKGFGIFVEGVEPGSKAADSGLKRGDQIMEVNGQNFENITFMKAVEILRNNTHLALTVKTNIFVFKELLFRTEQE

SNTA1, Q13424 = target: T12, SNTA1, Q13424
T12 sequence (Q13424 82-180, limits assumed, looked up): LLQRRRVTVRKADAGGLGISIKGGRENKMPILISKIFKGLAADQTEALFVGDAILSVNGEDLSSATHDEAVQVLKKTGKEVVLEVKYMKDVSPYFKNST

SNTB1, Q13884 = target: T13, SNTB1, Q13884
T13 sequence (Q13884 107-205, limits assumed, looked up): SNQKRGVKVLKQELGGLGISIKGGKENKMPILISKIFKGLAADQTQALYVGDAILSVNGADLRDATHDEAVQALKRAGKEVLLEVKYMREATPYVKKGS

SNX27, Q96L92 = target: SNX27, Q96L92
[1] = plain residues with an end cap or a label only (N-terminal biotin on a linker: ado-ado)
[2] = plain residues with an end cap or a label only (N-terminal biotin on a linker: ttds)

Chain of AHNAK1, Q09666 (Q09666 4-100): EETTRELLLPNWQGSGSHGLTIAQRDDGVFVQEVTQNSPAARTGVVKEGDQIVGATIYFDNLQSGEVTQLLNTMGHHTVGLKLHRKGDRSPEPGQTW

pKd (AHNAK1, Q09666; [1]): below the threshold
pKd (APBA2_1, Q99767; [1]): below the threshold
pKd (APBA3_1, O96018; [1]): below the threshold
pKd (ARHGEF11, O15085; [1]): 4.17
pKd (DLG2_3, Q15700; [1]): 3.74
pKd (DLG3_1, Q92796; [1]): 3.49
pKd (DLG5_1, Q8TDM6; [1]): below the threshold
pKd (DVL3, Q92997; [1]): below the threshold
pKd (FRMPD2_1, Q68DX3; [1]): below the threshold
pKd (FRMPD2_3, Q68DX3; [1]): below the threshold
pKd (GRIP2_6, Q9C0E4; [1]): below the threshold
pKd (HTRA2, O43464; [1]): below the threshold
pKd (IL16_4, Q14005; [1]): below the threshold
pKd (LAP2, Q96RT1; [1]): 4.13
pKd (LRRC7, Q96NW7; [1]): 3.58
pKd (MAGI2_6, Q86UL8; [1]): 3.66
pKd (MPP6, Q9NZW5; [1]): below the threshold
pKd (MPP7, Q5T2T1; [1]): below the threshold
pKd (PARD3_3, Q8TEW0; [1]): below the threshold
pKd (PDZD2_2, O15018; [1]): 5.1
pKd (PTPN13_1, Q12923; [1]): below the threshold
pKd (RAPGEF6, Q8TEU7; [1]): below the threshold
pKd (SNTA1, Q13424; [1]): 3.91
pKd (SNTB1, Q13884; [1]): 4.32
pKd (SNX27, Q96L92; [1]): 4.68
Binder: FVHPILQSAV [PRKCA, P17252]

pKd (AHNAK1, Q09666; [2]): below the threshold
pKd (APBA2_1, Q99767; [2]): below the threshold
pKd (APBA3_1, O96018; [2]): below the threshold
pKd (ARHGEF11, O15085; [2]): below the threshold
pKd (DLG2_3, Q15700; [2]): 3.95
pKd (DLG3_1, Q92796; [2]): below the threshold
pKd (DLG5_1, Q8TDM6; [2]): below the threshold
pKd (DVL3, Q92997; [2]): below the threshold
pKd (FRMPD2_1, Q68DX3; [2]): below the threshold
pKd (FRMPD2_3, Q68DX3; [2]): below the threshold
pKd (GRIP2_6, Q9C0E4; [2]): below the threshold
pKd (HTRA2, O43464; [2]): below the threshold
pKd (IL16_4, Q14005; [2]): below the threshold
pKd (LAP2, Q96RT1; [2]): 3.48
pKd (LRRC7, Q96NW7; [2]): below the threshold
pKd (MAGI2_6, Q86UL8; [2]): 3.99
pKd (MPP6, Q9NZW5; [2]): below the threshold
pKd (MPP7, Q5T2T1; [2]): below the threshold
pKd (PARD3_3, Q8TEW0; [2]): 3.91
pKd (PDZD2_2, O15018; [2]): 5.04
pKd (PTPN13_1, Q12923; [2]): below the threshold
pKd (RAPGEF6, Q8TEU7; [2]): below the threshold
pKd (SNTA1, Q13424; [2]): 4.97
pKd (SNTB1, Q13884; [2]): 4.92
pKd (SNX27, Q96L92; [2]): 3.75
Binder: QFQYAKESYI [TAGAP, Q8N103]

pKd (AHNAK1, Q09666; [2]): 3.53
pKd (APBA2_1, Q99767; [2]): below the threshold
pKd (APBA3_1, O96018; [2]): below the threshold
pKd (ARHGEF11, O15085; [2]): 4.03
pKd (DLG2_3, Q15700; [2]): 3.53
pKd (DLG3_1, Q92796; [2]): 3.56
pKd (DLG5_1, Q8TDM6; [2]): below the threshold
pKd (DVL3, Q92997; [2]): below the threshold
pKd (FRMPD2_1, Q68DX3; [2]): below the threshold
pKd (FRMPD2_3, Q68DX3; [2]): 3.54
pKd (GRIP2_6, Q9C0E4; [2]): below the threshold
pKd (HTRA2, O43464; [2]): below the threshold
pKd (IL16_4, Q14005; [2]): 3.66
pKd (LAP2, Q96RT1; [2]): 3.53
pKd (LRRC7, Q96NW7; [2]): below the threshold
pKd (MAGI2_6, Q86UL8; [2]): below the threshold
pKd (MPP6, Q9NZW5; [2]): below the threshold
pKd (MPP7, Q5T2T1; [2]): below the threshold
pKd (PARD3_3, Q8TEW0; [2]): 3.64
pKd (PDZD2_2, O15018; [2]): 4.44
pKd (PTPN13_1, Q12923; [2]): below the threshold
pKd (RAPGEF6, Q8TEU7; [2]): below the threshold
pKd (SNTA1, Q13424; [2]): below the threshold
pKd (SNTB1, Q13884; [2]): 3.96
pKd (SNX27, Q96L92; [2]): 4.04
Binder: DPRNTQTSQI [ABRAXAS2, Q15018]
